This note sets out measurements from patent US6033823A, “Mutated penicillin G acylase genes” (priority 1994, dated 2000).

Holding throughout (assay): Deacylation kinetics and phenylacetic acid product inhibition, mutant B:L56K
What all share (assay type): biochemical, Alcaligenes faecalis

Substrate in data set [1]: O=C(Cc1ccccc1)Nc1ccc([N+](=O)[O-])c(C(=O)O)c1
Conditions: other: B:L56K; 0.1M NaH2PO4, pH 7.5, 25° C.; pH 7.5; 25.0 °C. On the procedure:
(§1) In order to determine enzymatic activity the acylases were incubated with substrate at room temperature in buffered solution. In case β-lactamase impurity was expected to be present in the enzyme preparations, 1.0 mM -lactamase inhibitor 6-bromo-penicillanic acid was added to the assay. The reactions were stopped by adding an excess PMSF. For some mutants which were less sensitive to PMSF inhibition, the reactions were stopped by adding 0.5 M HCl or 0.5 M acetic acid until the pH was between 3 and 4. When reactions were subsequently analysed by HPLC, the reactions were stopped by dilution with the correponding elution solvent (see table 1). In addition substrates were incubated under assay conditions in absence of enzyme. If necessary enzyme assays were corrected for non-enzymatic hydrolysis
(§2) The composition of the reaction mixtures was determined by high-performanceliquid chromatography (HPLC)(table 1). Concentrations were determined by using standards of known concentration.
(§3) In a continuous assay Penicillin G acylase was assayed spectro-fotometrically with the chromogenic substrate NIPAB [6-nitro-3-phenylacetamido-benzoic acid]. The liberation of 3-amino-6-nitrobenzoic acid was monitored by measuring the extinction at 405 nm in a Kontron 610 kinetic spectrofotometer. […] Initial rate measurements were performed with varying concentration of NIPAB. […]
(§4) Initial rate measurements were performed with excess substrate over the enzyme. Catalytic parameters were derived from least-squares fitting of the measured initial rates plotted for various substrate concentrations according to the Michaelis-Menten equation.
(§5) The complete conversion of NIPAB was followed as a funtion of time at 20, 50 and 100 μM NIPAB by following the increase in absorbtion at 405 nm. Products of this conversion are phenylacetic acid and 3-amino-6-nitrobenzoic acid. […] The progress curves of the deacylation of NIPAB could be fitted very well when product inhibition by phenylacetic acid was taken into account. The dissociation constants (usually referred to as inhibition constant Ki) for phenylacetic acid which could be derived from the progress curves is shown in table 11. For these mutants the yield of the conversion in a fixed time span is higher than for wild type. Alternatively, in order to obtain a certain yield a shorter conversion time is needed for the mutants.

Substrate in data set [2]: CC1(C)S[C@@H]2[C@H](NC(=O)[C@H](N)c3ccccc3)C(=O)N2[C@H]1C(=O)O
The conditions noted are these: other: B:L56K; 20 mM NaH2PO4, pH 7.0, 37° C.; pH 7.0; 37.0 °C. On the procedure: as §1, §2, §3, §4, §5

Substrate in data set [3]: NC(=O)[C@H](N)c1ccccc1
The conditions noted are these: other: B:L56K; 20 mM NaH2PO4, pH 7.0, 37° C.; pH 7.0; 37.0 °C. On the procedure:
as §1, §2, §3, §4, §5

Substrate in data set [4]: CC1(C)S[C@@H]2[C@H](NC(=O)Cc3ccccc3)C(=O)N2[C@H]1C(=O)O
The conditions noted are these: other: B:L56K; 40 mM NaH2PO4, pH 7.5, 37° C.; pH 7.5; 37.0 °C. On the procedure: as §1, §2, §3, §4, §5

Substrate in data set [5]: CC1=C(C(=O)O)N2C(=O)[C@@H](NC(=O)Cc3ccccc3)[C@H]2SC1
The conditions noted are these: other: B:L56K; 20 mM NaH2PO4, pH 7.5, 37° C.; pH 7.5; 37.0 °C. On the procedure: as §1, §2, §3, §4, §5

Substrate in data set [6]: CC1(C)S[C@@H]2[C@H](NC(=O)COc3ccccc3)C(=O)N2[C@H]1C(=O)O
The conditions noted are these: other: B:L56K; 40 mM NaH2PO4, pH 7.5, 37° C.; pH 7.5; 37.0 °C. On the procedure:
as §1, §2, §3, §4, §5

B1: Alcaligenes faecalis Penicillin G acylase mutant B:L56K (Alcaligenes faecalis; L321K) (protein)
chain 1: QVQSVEVMRDSYGVPHVFADSHYGLYYGYGYAVAQDRLFQMDMARRSFVGTTAAVLGPGEQDAYVKYDMQVRQNFTPASIQRQIAALSKDERDIFRGYADGYNAYLEQVRRRPELLPKEYVDFDFQPEPLTDFDVVMIWVGSMANRFSDTNLEVTALAMRQSLEKQHGPERGRALFDELLWINDTTAPTTVPAPAAEHKPQA
chain 2: SNLWSTRPERVQEGSTVLINGPQFGWYNPAYTYGIGLHGAGFDVVGNTPFAYPIVKFGTNSEIAWGATAGPQDVVDIYQEKLNPSRADQYWFNNAWRTMEQRKERIQVRGQADREMTIWRTVHGPVMQFDYDQGAAYSKKRSWDGYEVQSLLAWLNVAKARNWTEFLDQASKMAISINWYYADKHGNIGYVSPAFLPQRPADQDIRVPAKGDGSMEWLGIKSFDAIPKAYNPPQGYLVNWNNKPAPDKTNTDTYYWTYGDRMNELVSQYQQKDLFSVQEIWEFNQKASYSDVNWRYFRPHLEKLAQQLPADDSSKAALTMLLAWDGMEQDQGGQNAGPARVLFKTWLEEMYKQVLMPVVPESHRAMYSQTGFATQQGPNPGSINLSMGTKVLLRALVLEAHPDPKRVNVFGERSSQEIMHTALQNAQARLSQEQGAQMARWTMPTSVHRFSDKNFTGTPQTMPGNTFAFTGYQNRGTENNRVVFDAKGVEFCDAMPPGQSGFTDRNGVRSPHYEDQLKLYENFECKTMDVTHADIRRNAQSSTMLLIQPQP
notes: alpha 202 aa, beta 551 aa; recombinant, E. coli host
For B1, the Km in data set [1] is 28 µM; in data set [2], 1700 µM; in data set [3], 49000 µM; in data set [4], 1 µM; in data set [5], 10 µM; in data set [6] it was 35 µM. In addition, the Vmax in data set [1] was found to be 47.3 U/mg; in data set [2], 20.9 U/mg; in data set [3] it was 18.2 U/mg; in data set [4] it was 36.4 U/mg; in data set [5] it was 25.5 U/mg; in data set [6], 15.5 U/mg.
